According to US9994830B2, “Methods for modulating cyclic nucleotide-mediated signaling in cardiac myocytes and compositions” (The United States of America as Represented by the …, priority 2014, dated 2018):

Target: T1, rSERCA2 (Homo sapiens, UniProt P16615)
T1 construct: purchased Abnova
Test: Co-immunoprecipitation of Flag-tagged rhPDE3A variants and rSERCA2 after incubation with or without rPKAc
Assay type: binding
Details: for PKA-stimulated (phosphorylation-dependent) interaction with SERCA2: serine-to-alanine mutants of rhPDE3A1, 50 units rPKAc, co-IP
Text: FIG. 11 a-d. rPKAc phosphorylates rhPDE3A and increases its interactions rSERCA2. A. Schemes representing PDE3A1 [NHR1: trans-membrane domain (obligatory membrane insertion domain); NHR2: membrane association domain; CCR: conserved C-terminal catalytic region; P1-4: predicted PKA phosphorylation sites; rhPDE3A and truncated mutants (PDE3A2, PDE3A-A510, PDE3A-RD), and rSERCA2 (1042 amino acids, 3-77 cation transporter N-terminal; 93-341, E1-E2 ATPase; 345-724, haloacid dehydrogenase like hydrolase; 819-991, cation transporter ATPase C-terminus). B. Putative PKA phosphorylation sites of PDE3A designated with asterisks. C-D. Purified rSERCA2 (150 ng) (Abnova) and 50 units of Flag-tagged rhPDE3A1 truncated mutants [rhPDE3A2, rhPDE3A-A510, and similarly expressed rhPDE3A-RD (aa 146-484)](FIG. 11D) or mutants lacking the PKA putative phosphorylation site mutants of rhPDE3A1 [Ser292/293A (M1), S312A (M2), S428A (M3), S438A (M4), S292A/293A/312A/438A (M5)](FIG. 11C) were incubated with or without 50 units of rPKAc at 30° C. for 30 min and 5 mM MgCl2 in phosphorylation buffer. Proteins were immunoprecipitated with anti-Flag antibodies and immunoblotted with anti-SERCA2 (upper panel), or anti-Flag (middle panel). Lower panel: input control (SERCA2). Shown are representative blots from three independent experiments. (RD: regulatory domain; AA: amino acid).
Flag-tagged rhPDE3A1 and its phosphorylation site mutants [rhPDE3A1-S292A/293A (M1), rhPDE3A1-S312A (M2), rhPDE3A1-S428A (M3), rhPDE3A1-S438A (M4), rhPDE3A1-S292A/293A/312A/438A (M5) open reading frame [accession #NP_000912] was synthesized by Genscript, Inc (Piscataway, N.J.), subcloned into pAcSG2 baculoviral expression vector. Flag-tagged rhPDE3A variants and phosphorylation site mutants were expressed in SF21 cells [(10-20)×106 SF21 cells/75-cm2 flask] as described (19,20). SF21 cells were harvested, sedimented (10 min, 1000×g, 4° C.), washed twice with ice-cold PBS, resuspended, homogenized (in a Dounce homogenizer) in buffer B and sonicated […]. A comparison of the translated sequences of human AKAP18γ (AC NP_057461 and AK300587; 348 aa residues) and rat AKAP18δ (3) (AC QJP77; 352 aa residues) indicate that eight of the first twelve aa residues of human AKAP18γ and rat AKAP18δ are identical, and that the proteins are homologous (˜74% aa identity). SF21 cell extracts, which contained his-tagged-rAKAP18δ, were prepared as described above. Flag-tagged rhPDE3A1 (usually 50 arbitrary (u) units) was incubated (30 min, 30° C.) with rAKAP18δ (200 μl, containing 50 ng of recombinant protein), with or without different concentrations of rPKAc (final volume, 300 μl) in buffer B containing 2 mM DTT and 200 μM ATP. Reactions were stopped by dilution of reaction mixtures to 1.0 ml with buffer B containing 1 mg/ml SF21 cell lysates, and cleared as described above (cf ‘Immunoprecipitation and immunoblotting’ subsection). His-tagged rAKAP18δ was immunoprecipitated with anti-his Mab Mag-beads (Genscript). Anti-his Mab Mag beads-bound immunoprecipitates were washed, collected, and anti-his Mab Mag-beads-bound proteins were eluted by boiling in Laemmli's SDS buffer (100 μl) and samples (15 μl) of immunoprecipitated proteins as well as of reaction mixtures (‘input proteins’) were immunoblotted with indicated antibodies as described above.

T1 sequence (P16615 whole entry): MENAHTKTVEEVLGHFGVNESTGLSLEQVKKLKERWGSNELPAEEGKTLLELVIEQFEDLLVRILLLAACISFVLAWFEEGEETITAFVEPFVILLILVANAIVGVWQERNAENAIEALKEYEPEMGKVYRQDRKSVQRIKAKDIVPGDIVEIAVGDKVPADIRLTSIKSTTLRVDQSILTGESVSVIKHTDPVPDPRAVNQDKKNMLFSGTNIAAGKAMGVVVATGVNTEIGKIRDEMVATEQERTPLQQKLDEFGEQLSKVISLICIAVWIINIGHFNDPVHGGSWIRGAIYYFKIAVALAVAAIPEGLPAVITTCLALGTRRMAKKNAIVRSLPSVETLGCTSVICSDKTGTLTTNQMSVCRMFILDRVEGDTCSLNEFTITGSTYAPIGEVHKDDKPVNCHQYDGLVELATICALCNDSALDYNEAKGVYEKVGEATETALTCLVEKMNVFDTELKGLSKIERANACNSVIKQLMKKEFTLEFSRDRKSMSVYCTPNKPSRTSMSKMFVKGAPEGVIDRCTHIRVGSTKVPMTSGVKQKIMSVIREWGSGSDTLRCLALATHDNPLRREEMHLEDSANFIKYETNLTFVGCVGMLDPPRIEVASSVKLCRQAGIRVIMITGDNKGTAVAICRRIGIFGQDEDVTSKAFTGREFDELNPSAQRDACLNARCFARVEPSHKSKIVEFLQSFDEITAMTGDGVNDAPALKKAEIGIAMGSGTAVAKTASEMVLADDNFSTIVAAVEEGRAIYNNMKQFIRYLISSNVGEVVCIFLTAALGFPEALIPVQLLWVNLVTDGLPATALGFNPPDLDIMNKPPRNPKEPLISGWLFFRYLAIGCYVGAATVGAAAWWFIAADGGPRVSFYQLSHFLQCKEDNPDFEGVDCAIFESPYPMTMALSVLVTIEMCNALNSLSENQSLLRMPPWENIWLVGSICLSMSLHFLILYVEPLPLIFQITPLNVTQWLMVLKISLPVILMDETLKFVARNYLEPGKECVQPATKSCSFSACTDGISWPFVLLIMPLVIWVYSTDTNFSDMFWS

Molecule | co-immunoprecipitation of rSERCA2 with construct (truncated rhPDE3A constructs) | PKA-stimulated (phosphorylation-dependent) interaction with SERCA2
rPDE3A-RD: construct containing only the N-terminal portion of PDE3A1 (aa 146-484), regulatory domain (protein) MGLYLLRAGVRLPLAVALLAACCGGEALVQIGLGVGEDHLLSLPAAGVVLSCLAAATWLVLRLRLGVLMIALTSAVRTVSLISLERFKVAWRPYLAYLAGVLGILLARYVEQILPQSAEAAPREHLGSQLIAGTKEDIPVFKRRRRSSSVVSAEMSGCSSKSHRRTSLPCIPREQLMGHSEWDHKRGPRGSQSSGTSITVDIAVMGEAHGLITDLLADPSLPPNVCTSLRAVSNLLSTQLTFQAIHKPRVNPVTSLSENYTCSDSEESSEKDKLAIPKRLRRSLPPGLLRRVSSTWTTTTSATGLPTLEPAPVRRDRSTSIKLQEAPSSSPDSWNNPVM | co-immunoprecipitated | –
M1: Flag-tagged rhPDE3A1 phosphorylation site mutant S292A/293A (protein, UniProt Q14432 1-1141, looked up, variant S292A S293A, Flag tag, Flag-tagged rhPDE3A1 phosphorylation site mutant S292A/293A) cGMP-inhibited 3',5'-cyclic …: MAVPGDAARVRDKPVHSGVSQAPTAGRDCHHRADPASPRDSGCRGCWGDLVLQPLRSSRKLSSALCAGSLSFLLALLVRLVRGEVGCDLEQCKEAAAAEEEEAAPGAEGGVFPGPRGGAPGGGARLSPWLQPSALLFSLLCAFFWMGLYLLRAGVRLPLAVALLAACCGGEALVQIGLGVGEDHLLSLPAAGVVLSCLAAATWLVLRLRLGVLMIALTSAVRTVSLISLERFKVAWRPYLAYLAGVLGILLARYVEQILPQSAEAAPREHLGSQLIAGTKEDIPVFKRRRRAASVVSAEMSGCSSKSHRRTSLPCIPREQLMGHSEWDHKRGPRGSQSSGTSITVDIAVMGEAHGLITDLLADPSLPPNVCTSLRAVSNLLSTQLTFQAIHKPRVNPVTSLSENYTCSDSEESSEKDKLAIPKRLRRSLPPGLLRRVSSTWTTTTSATGLPTLEPAPVRRDRSTSIKLQEAPSSSPDSWNNPVMMTLTKSRSFTSSYAISAANHVKAKKQSRPGALAKISPLSSPCSSPLQGTPASSLVSKISAVQFPESADTTAKQSLGSHRALTYTQSAPDLSPQILTPPVICSSCGRPYSQGNPADEPLERSGVATRTPSRTDDTAQVTSDYETNNNSDSSDIVQNEDETECLREPLRKASACSTYAPETMMFLDKPILAPEPLVMDNLDSIMEQLNTWNFPIFDLVENIGRKCGRILSQVSYRLFEDMGLFEAFKIPIREFMNYFHALEIGYRDIPYHNRIHATDVLHAVWYLTTQPIPGLSTVINDHGSTSDSDSDSGFTHGHMGYVFSKTYNVTDDKYGCLSGNIPALELMALYVAAAMHDYDHPGRTNAFLVATSAPQAVLYNDRSVLENHHAAAAWNLFMSRPEYNFLINLDHVEFKHFRFLVIEAILATDLKKHFDFVAKFNGKVNDDVGIDWTNENDRLLVCQMCIKLADINGPAKCKELHLQWTDGIVNEFYEQGDEEASLGLPISPFMDRSAPQLANLQESFISHIVGPLCNSYDSAGLMPGKWVEDSDESGDTDDPEEEEEEAPAPNEEETCENNESPKKKTFKRRKIYCQITQHLLQNHKMWKKVIEEEQRLAGIENQSLDQTPQSHSSEQIQAIKEEEEEKGKPRGEEIPTQKPDQ | – | markedly diminished
M2: Flag-tagged rhPDE3A1 phosphorylation site mutant S312A (protein, UniProt Q14432 1-1141, looked up, variant S312A, Flag tag, Flag-tagged rhPDE3A1 phosphorylation site mutant S312A) cGMP-inhibited 3',5'-cyclic …: MAVPGDAARVRDKPVHSGVSQAPTAGRDCHHRADPASPRDSGCRGCWGDLVLQPLRSSRKLSSALCAGSLSFLLALLVRLVRGEVGCDLEQCKEAAAAEEEEAAPGAEGGVFPGPRGGAPGGGARLSPWLQPSALLFSLLCAFFWMGLYLLRAGVRLPLAVALLAACCGGEALVQIGLGVGEDHLLSLPAAGVVLSCLAAATWLVLRLRLGVLMIALTSAVRTVSLISLERFKVAWRPYLAYLAGVLGILLARYVEQILPQSAEAAPREHLGSQLIAGTKEDIPVFKRRRRSSSVVSAEMSGCSSKSHRRTALPCIPREQLMGHSEWDHKRGPRGSQSSGTSITVDIAVMGEAHGLITDLLADPSLPPNVCTSLRAVSNLLSTQLTFQAIHKPRVNPVTSLSENYTCSDSEESSEKDKLAIPKRLRRSLPPGLLRRVSSTWTTTTSATGLPTLEPAPVRRDRSTSIKLQEAPSSSPDSWNNPVMMTLTKSRSFTSSYAISAANHVKAKKQSRPGALAKISPLSSPCSSPLQGTPASSLVSKISAVQFPESADTTAKQSLGSHRALTYTQSAPDLSPQILTPPVICSSCGRPYSQGNPADEPLERSGVATRTPSRTDDTAQVTSDYETNNNSDSSDIVQNEDETECLREPLRKASACSTYAPETMMFLDKPILAPEPLVMDNLDSIMEQLNTWNFPIFDLVENIGRKCGRILSQVSYRLFEDMGLFEAFKIPIREFMNYFHALEIGYRDIPYHNRIHATDVLHAVWYLTTQPIPGLSTVINDHGSTSDSDSDSGFTHGHMGYVFSKTYNVTDDKYGCLSGNIPALELMALYVAAAMHDYDHPGRTNAFLVATSAPQAVLYNDRSVLENHHAAAAWNLFMSRPEYNFLINLDHVEFKHFRFLVIEAILATDLKKHFDFVAKFNGKVNDDVGIDWTNENDRLLVCQMCIKLADINGPAKCKELHLQWTDGIVNEFYEQGDEEASLGLPISPFMDRSAPQLANLQESFISHIVGPLCNSYDSAGLMPGKWVEDSDESGDTDDPEEEEEEAPAPNEEETCENNESPKKKTFKRRKIYCQITQHLLQNHKMWKKVIEEEQRLAGIENQSLDQTPQSHSSEQIQAIKEEEEEKGKPRGEEIPTQKPDQ | – | slightly decreased
M5: Flag-tagged rhPDE3A1 phosphorylation site mutant S292A/293A/312A/438A (protein, UniProt Q14432 1-1141, looked up, variant S292A S293A S312A S438A, Flag tag, Flag-tagged rhPDE3A1 phosphorylation site mutant S292A/293A/312A/438A) cGMP-inhibited 3',5'-cyclic …: MAVPGDAARVRDKPVHSGVSQAPTAGRDCHHRADPASPRDSGCRGCWGDLVLQPLRSSRKLSSALCAGSLSFLLALLVRLVRGEVGCDLEQCKEAAAAEEEEAAPGAEGGVFPGPRGGAPGGGARLSPWLQPSALLFSLLCAFFWMGLYLLRAGVRLPLAVALLAACCGGEALVQIGLGVGEDHLLSLPAAGVVLSCLAAATWLVLRLRLGVLMIALTSAVRTVSLISLERFKVAWRPYLAYLAGVLGILLARYVEQILPQSAEAAPREHLGSQLIAGTKEDIPVFKRRRRAASVVSAEMSGCSSKSHRRTALPCIPREQLMGHSEWDHKRGPRGSQSSGTSITVDIAVMGEAHGLITDLLADPSLPPNVCTSLRAVSNLLSTQLTFQAIHKPRVNPVTSLSENYTCSDSEESSEKDKLAIPKRLRRSLPPGLLRRVASTWTTTTSATGLPTLEPAPVRRDRSTSIKLQEAPSSSPDSWNNPVMMTLTKSRSFTSSYAISAANHVKAKKQSRPGALAKISPLSSPCSSPLQGTPASSLVSKISAVQFPESADTTAKQSLGSHRALTYTQSAPDLSPQILTPPVICSSCGRPYSQGNPADEPLERSGVATRTPSRTDDTAQVTSDYETNNNSDSSDIVQNEDETECLREPLRKASACSTYAPETMMFLDKPILAPEPLVMDNLDSIMEQLNTWNFPIFDLVENIGRKCGRILSQVSYRLFEDMGLFEAFKIPIREFMNYFHALEIGYRDIPYHNRIHATDVLHAVWYLTTQPIPGLSTVINDHGSTSDSDSDSGFTHGHMGYVFSKTYNVTDDKYGCLSGNIPALELMALYVAAAMHDYDHPGRTNAFLVATSAPQAVLYNDRSVLENHHAAAAWNLFMSRPEYNFLINLDHVEFKHFRFLVIEAILATDLKKHFDFVAKFNGKVNDDVGIDWTNENDRLLVCQMCIKLADINGPAKCKELHLQWTDGIVNEFYEQGDEEASLGLPISPFMDRSAPQLANLQESFISHIVGPLCNSYDSAGLMPGKWVEDSDESGDTDDPEEEEEEAPAPNEEETCENNESPKKKTFKRRKIYCQITQHLLQNHKMWKKVIEEEQRLAGIENQSLDQTPQSHSSEQIQAIKEEEEEKGKPRGEEIPTQKPDQ | – | markedly diminished
